# Laboratory results taken from patent US20210403546A1 (published 2021).
# B1: 13A1_2F Fab (LCR13A1_VK_GLv1_05 + LCR13A1_VH_GLv1_03, stable Fab) (Fab, V domains shown)
# VH: QVQLVQSGSVLAKPGASVKVSCKASGYTFTNYWMHWVRQAPGQGLEWIGTIYPGNSDTNYNQKFKDRAKLTAVTSTSTVYMELSSLRSEDTAVYYCTREDSRSLYYNGWDYFDYWGQGTLVTVSS
# VL: DIVMTQSPDSLAVSLGERATISCRASESVDNYGISFLNWFQQKPGQPPKLLIYAASNQGSGVPSRFSGSGSGTDFTLNIHPLEAEDAATYYCQQSKEVPRTFGGGTKVEIK
# B2: 13A1_2B Fab (LCR13A1_VH_GLv1_03_LCR13A1_VK_GLv3, stable Fab) (Fab, V domains shown)
# VH: QVQLVQSGSVLAKPGASVKVSCKASGYTFTNYWMHWVRQAPGQGLEWIGTIYPGNSDTNYNQKFKDRAKLTAVTSTSTVYMELSSLRSEDTAVYYCTREDSRSLYYNGWDYFDYWGQGTLVTVSS
# VL: DIVMTQSPDSLAVSLGERATINCKSSESVDNYGISFLNWFQQKPGKAPKLLIYAASNQGSGVPDRFSGSGSGTDFTLTISSLQAEDVAVYFCQQSKEVPRTFGGGTKLEIK
# Target: human recombinant TGF-b1 (human, UniProt P01137 279-390)
# Test: Biacore SPR
# human recombinant TGF-b1, sequence (P01137 279-390): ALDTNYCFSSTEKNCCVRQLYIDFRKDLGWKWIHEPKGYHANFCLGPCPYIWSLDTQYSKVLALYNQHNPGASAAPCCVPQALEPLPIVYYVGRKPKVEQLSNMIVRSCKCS
row,Kd [pM],Binder
1,639,B1
2,615,B2
